Patent US20110167521

Columns and labels:
Assay in all cases: cell_activity
[1] = system: ZFP 14025-VP16 (artificial); conditions: callus, control 2.90; 27% up-regulation p=0.05; more than 3-fold in some T0 events
[2] = system: ZFP 13722-NtERF3 (artificial); conditions: homozygous T2 immature seed, event 5227-12, p=0.025; no apparent effect in heterozygous
[3] = system: ZFP 13722-KRAB1 (artificial); conditions: homozygous T2 immature seed, event 5212-4; no apparent effect in heterozygous

Row | Sequence | activity (KasII/tubulin mRNA ratio) [1] | activity (% FatB5 mRNA reduction) [2] | activity (% FatB5 mRNA reduction) [3]
1 | CGTGGAGACGTCAAAAGA (double strand) [KASII 14025 target] | 3.69 | – | –
2 | AAGGAGAATTTTAGGGTTTGGGGAGACT (double strand) [FatB5 13722 target] | – | 21 | 15
